Results: PMC11322411

Molecular target: GRK2-phosphorylated FLAG-tagged SMOOTHENED (near-full-length mouse SMO, residues 64-674) (mouse) (UniProt P56726)
Experiment: pull-down; purified FLAG-SMO forms (18.2 uM) mixed with PKA-C (10 uM), captured on anti-FLAG M1 sepharose beads, 4°C 2 h; 20 mM HEPES pH 7.5, 150 mM NaCl, 3 mM CaCl2, 10 mM MgCl2, 1 mM ATP, 0.025% GDN, 1 uM SAG21k; eluted with FLAG peptide and EDTA; stain-free SDS-PAGE, densitometry

Chain of UniProt P56726 (P56726 64-674): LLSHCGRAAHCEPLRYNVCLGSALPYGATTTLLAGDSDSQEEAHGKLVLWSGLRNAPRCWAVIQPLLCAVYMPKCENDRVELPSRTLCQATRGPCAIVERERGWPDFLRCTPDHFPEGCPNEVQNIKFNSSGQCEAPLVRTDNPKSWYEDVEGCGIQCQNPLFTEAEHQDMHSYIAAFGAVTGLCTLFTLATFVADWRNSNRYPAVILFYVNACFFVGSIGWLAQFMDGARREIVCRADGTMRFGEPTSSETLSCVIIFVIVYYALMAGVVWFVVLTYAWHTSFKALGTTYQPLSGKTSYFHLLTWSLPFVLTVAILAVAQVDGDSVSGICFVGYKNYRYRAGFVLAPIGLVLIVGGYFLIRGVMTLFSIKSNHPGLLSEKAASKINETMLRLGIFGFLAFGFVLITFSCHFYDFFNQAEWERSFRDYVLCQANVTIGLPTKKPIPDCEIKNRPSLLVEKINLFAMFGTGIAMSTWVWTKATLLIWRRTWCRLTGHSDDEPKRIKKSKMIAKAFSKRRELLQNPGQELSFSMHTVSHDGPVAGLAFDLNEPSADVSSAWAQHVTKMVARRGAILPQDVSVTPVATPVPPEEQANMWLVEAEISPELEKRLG

Substance: protein kinase A catalytic subunit (PKA-C), mouse (from UniProt P05132 1-351) (enzyme)
- PKA-C in the FLAG elution as percent of SMO: 25%
